From the supplement of paper PMC10724198
± gives the standard deviation of the averaged measurements.

How the values were obtained:
[1] = tested on: Saccharomyces cerevisiae; assay: protein stability index of tFT-peptide fusion (C-terminal peptide) (PSI (0-1 scale)); higher = more stable (slower turnover); conditions: genetic background: wild type; temperature: 30 C
[2] = tested on: Saccharomyces cerevisiae; assay: as above
Protocol: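 MPS profiling in S. cerevisiae of the tFT-X12 degron library: putative degron peptides plus stable controls, 12 aa, fused to the C-terminus of a sfGFP-mCherry timer. Cells are FACS-sorted into 8 mCherry/sfGFP bins and deep-sequenced. PSI runs from 0 (unstable) to 1 (stable). Backgrounds are wild type, das1Δ and doa10Δ at 30 °C, and wild type, das1Δ, cdc34-1 and cdc53-1 at 37 °C; 2-3 technical replicates each.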

[3] = genetic background: cdc34-1, temperature: 37 C
[4] = genetic background: cdc53-1, temperature: 37 C
[5] = genetic background: das1 deletion, temperature: 30 C
[6] = genetic background: das1 deletion, temperature: 37 C
[7] = genetic background: doa10 deletion, temperature: 30 C
[8] = genetic background: wild type, temperature: 30 C
[9] = genetic background: wild type, temperature: 37 C
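Note: PSI is a weighted mean of sequencing reads over stability bins, variants kept only with over 10 reads, mCherry proximal and sfGFP distal, peptide attached via GGGS linker.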

Sequence	protein stability index [1]	protein stability index [2, 3]	protein stability index [2, 4]	protein stability index [2, 5]	protein stability index [2, 6]	protein stability index [2, 7]	protein stability index [2, 8]	protein stability index [2, 9]
GFVSLFRLFIRL	0.36 ± 0.066	0.241 ± 0.073	0.218 ± 0.02	0.352 ± 0.032	0.4652 ± 0.0042	0.405 ± 0.024	0.25 ± 0.013	0.3595 ± 0.0028
GGGHGSSCSVCD	0.744 ± 0.032	0.67 ± 0.035	0.74 ± 0.034	0.665 ± 0.023	0.69544 ± 0.00064	0.646 ± 0.013	0.645 ± 0.0097	0.702 ± 0.019
GGGWGVFVVLWW	0.318 ± 0.028	0.193 ± 0.012	0.325 ± 0.0065	0.216 ± 0.034	0.4026 ± 0.0031	0.194 ± 0.0027	0.213 ± 0.031	0.355 ± 0.038
GGIVLLVRVCGP	0.46 ± 0.011	0.55 ± 0.016	0.636 ± 0.0091	0.436 ± 0.019	0.6149 ± 0.0012	0.389 ± 0.0083	0.422 ± 0.018	0.601 ± 0.025
GGLLSQLLRSIG	0.425 ± 0.047	0.664 ± 0.026	0.723 ± 0.019	0.617 ± 0.024	0.743 ± 0.0075	0.2341 ± 0.0008	0.279 ± 0.055	0.5807 ± 0.0052
GGRWRRRGFFFS	0.518 ± 0.097	0.6973 ± 0.0024	0.72 ± 0.01	0.702 ± 0.032	0.709 ± 0.026	0.627 ± 0.0095	0.628 ± 0.01	0.673 ± 0.014
GGYCQMFFLYFR	0.141 ± 0.021	0.0593 ± 0.039	0.0464 ± 0.018	0.0923 ± 0.042	0.0948 ± 0.0031	0.575 ± 0.021	0.0833 ± 0.0047	0.0907 ± 0.031
GHHLRVRVILTA	0.275 ± 0.054	0.4104 ± 0.00042	0.435 ± 0.0077	0.311 ± 0.026	0.47 ± 0.013	0.16006 ± 0.00015	0.189 ± 0.019	0.297 ± 0.013
GICLVLVSDIWI	0.441 ± 0.018	0.579 ± 0.032	0.558 ± 0.0064	0.413 ± 0.026	0.599 ± 0.018	0.374 ± 0.04	0.39 ± 0.014	0.568 ± 0.029
GIGYMFLNVWLV	0.153 ± 0.022	0.234 ± 0.036	0.302 ± 0.0072	0.246 ± 0.024	0.4208 ± 0.00089	0.0963 ± 0.011	0.0848 ± 0.015	0.122 ± 0.017
GKGVFGGLFFLV	0.294 ± 0.0074	0.667 ± 0.029	0.741 ± 0.019	0.623 ± 0.027	0.755 ± 0.013	0.182 ± 0.0027	0.211 ± 0.021	0.465 ± 0.011
GLGLIRTSRLLC	0.278 ± 0.037	0.609 ± 0.008	0.695 ± 0.026	0.627 ± 0.02	0.718 ± 0.0034	0.148 ± 0.027	0.186 ± 0.029	0.296 ± 0.027
GLLAFVCISHTS	0.458 ± 0.039	0.497 ± 0.044	0.542 ± 0.0086	0.378 ± 0.033	0.575 ± 0.019	0.312 ± 0.0026	0.344 ± 0.026	0.5396 ± 0.0015
GLPRRFLLLSVV	0.218 ± 0.0055	0.328 ± 0.008	0.4613 ± 0.0015	0.354 ± 0.033	0.508 ± 0.015	0.11 ± 0.016	0.137 ± 0.016	0.114 ± 0.02
GPHATYLYLVLA	0.2383 ± 0.00092	0.199 ± 0.022	0.258 ± 0.022	0.226 ± 0.039	0.34 ± 0.0059	0.1579 ± 0.00054	0.177 ± 0.018	0.22866 ± 0.00017
